# From paper PMC7352202, “An Integrative Synthetic Biology Approach to Interrogating Cellular Ubiquitin and Ufm Signaling” (International Journal of Molecular Sciences, 2020)
# T1: GST-UFL1 (human, UniProt O94874 1-794)
# T1 construct: UFL1, human, E3 ligase for ufmylation; purified recombinant GST-UFL1; The end of the GST tag is read from the printed name 'GST-UFL1'; source: E. coli BL21, purified (glutathione beads); not shown: GST, N-terminal, kept
# T1 sequence (looked up): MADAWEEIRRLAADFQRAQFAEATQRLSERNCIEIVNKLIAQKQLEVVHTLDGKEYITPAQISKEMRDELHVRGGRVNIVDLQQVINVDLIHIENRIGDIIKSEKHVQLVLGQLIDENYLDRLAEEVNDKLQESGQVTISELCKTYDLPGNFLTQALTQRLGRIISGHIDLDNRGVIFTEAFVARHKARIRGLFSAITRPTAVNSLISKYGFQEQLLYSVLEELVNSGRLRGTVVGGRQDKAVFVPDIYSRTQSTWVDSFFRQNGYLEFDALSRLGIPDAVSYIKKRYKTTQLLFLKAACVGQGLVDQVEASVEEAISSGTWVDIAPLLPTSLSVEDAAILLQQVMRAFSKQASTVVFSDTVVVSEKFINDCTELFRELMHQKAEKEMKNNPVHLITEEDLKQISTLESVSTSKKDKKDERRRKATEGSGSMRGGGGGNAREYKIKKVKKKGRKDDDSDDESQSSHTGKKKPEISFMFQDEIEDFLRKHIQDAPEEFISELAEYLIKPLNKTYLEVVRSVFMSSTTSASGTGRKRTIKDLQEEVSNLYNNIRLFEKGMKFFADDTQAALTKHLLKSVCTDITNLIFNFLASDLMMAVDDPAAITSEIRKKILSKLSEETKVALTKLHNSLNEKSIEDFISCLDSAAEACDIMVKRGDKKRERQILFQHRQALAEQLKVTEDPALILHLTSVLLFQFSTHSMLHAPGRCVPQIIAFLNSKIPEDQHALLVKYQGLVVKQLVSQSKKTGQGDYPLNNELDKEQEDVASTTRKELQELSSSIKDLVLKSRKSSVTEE
# Target: T1, GST-UFL1
# Assay: pull-down; GST pull-down: purified GST-UFL1 (20 ug) and substrate-Flag-His6 (20 ug) with Glutathione Sepharose 4B beads, 4 °C overnight, 20 mM Tris-Cl, 100 mM NaCl, 5 mM MgCl2, 1 mM EDTA, 1 mM DTT, 0.5% NP-40, 10 ug/mL BSA, pH 7.5; immunoblot
# Settings: both partners purified
# Sequence of MT1M-Flag-His6 (Q8N339 whole entry, change not shown): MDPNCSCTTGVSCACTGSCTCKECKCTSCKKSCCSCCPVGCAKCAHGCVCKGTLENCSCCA
binder,measurement,value
"MT1M-Flag-His6 (natural protein, MT1M, metallothionein family, human; purified recombinant MT1M-Flag-His6; The ends of the tags are read from the printed name; source: E. coli BL21, purified (Ni-NTA beads); not shown: Flag, C-terminal, kept; His6, C-terminal, kept) not shown",binding result,binds
